Assay [1] concerns the target ORF3 protein fused to enhanced cyan fluorescent protein (ECFP-ORF3) (hepatitis E virus). As to the kind of experiment: FRET or BRET. For orientation: BRET reads energy transfer from a luciferase to a nearby fluorophore.
Assay [2] concerns the target Pyst1 fused to enhanced yellow fluorescent protein (EYFP-Pyst1) (UniProt Q16828). As to the kind of experiment: FRET or BRET.

Experimental findings from publication PMC2441640 are described below.

UniProt Q16828, sequence (Q16828 whole entry, the tested form may be a part): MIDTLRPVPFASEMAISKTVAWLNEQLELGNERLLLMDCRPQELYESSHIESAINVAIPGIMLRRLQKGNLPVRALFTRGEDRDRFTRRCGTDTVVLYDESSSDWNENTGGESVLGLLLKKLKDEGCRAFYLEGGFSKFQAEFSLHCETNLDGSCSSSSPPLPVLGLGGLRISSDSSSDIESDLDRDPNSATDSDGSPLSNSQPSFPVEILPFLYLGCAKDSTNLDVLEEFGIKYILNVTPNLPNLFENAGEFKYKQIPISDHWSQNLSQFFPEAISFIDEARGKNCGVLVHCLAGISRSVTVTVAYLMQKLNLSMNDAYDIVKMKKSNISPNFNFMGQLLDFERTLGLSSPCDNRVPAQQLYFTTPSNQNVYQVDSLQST

On to “ORF3 protein fused to enhanced cyan fluorescent protein (ECFP-ORF3) (natural protein)”, for which the percent FRET efficiency (region of colocalization) in assay [1] is 26.4%; in assay [2] it was 27.8%.
